Assay results reported in the DeepSol protein solubility set.

assay: soluble on expression in E. coli; label from the status in PepcDB or PDB records

Row | Sequence | soluble on expression in E. coli
1 | MGSDKIHHHHHHMDEQVTILHTNDIHSHFENWPRIQRYLLTEREQRRQSGSHVITVDLGDAVDRAHPLSEATQGQANVALLNAIGYDAVTIGNNEGLGLTHAALNRLYDRANFDVVLDNLTDTATQRPPQWALPAKIITTARGTRVLLLAFTAPFTLTYPLNGWTPASVKTRFPELLRQYAGQYDVLIVMSHLGINVDRWLAKQFPVIDVVIGSHTHHLLVNGELKNGVLIAAAGKYGEYIGRIELTIDHQHHVKAAAAHTVATASLPIVAGDETLITGWEQQGETLLTRQVVAKVPTQLRPHWHHASDLTALGLAAITDYAKTDLGMLNGGLFMRDLPAGMVNRNDLHTMLPHAMHVIRVTLSGEALWRLVYEMELVRPFLNKFPIKGMGFRGQVFGYIQYQGLTWKTGQHTLLVNGQPVNRQQTYQIALLDHDLFIPFFPTINISGRTEILFEAMLRTVVGDYLMRRWPVK | not soluble
2 | MGSDKIHHHHHHMDFTEYQEEIIEDVKSCLESLQVQPILFMGAGISQRYIKAPDWEGLLKQLAEICPLIKRHYGYYSQTKGDNKPLIASDFCDFYAEWAWDDGKDRYPETYFEGTTPKDIYIKHEIASILNELSNSVDFSNMEYTEEVQKLRKVKPHAIITTNYDDTLEKIFDNYQAIVGHNVVKVNYSSYGEIMKIHGSSHEVESIVITNEDYVDFYKRKKYISAKLLTYFAEHPLFFFGYSINDENIKAILSDIDEIIAPNNALIPNIYLVSFSKDCEATGSHQKELLIGVGENKSIRIKVIYANDFGWIFDALSSNTPEISVNPKLVRAFLARTYTFASESLVKQELPYDFEMFRDIAEHDDALAKMYGIAELNNGQALNASFPYTMSDLARILDMGSWHYVNQEFEKLRKLTDFNIKASDNNYHVFIKSGKSGVGKYSSEALDLLRKLINGEQFELNP | not soluble
3 | MGSDKIHHHHHHMDGREIELKLALAPEDLARIAQRPCLSAGRLAEPTSKRLSSIYYDTSDHILASQGIAVRVRRTGSGFVQTVKTAGTSVSGLFDRDEWEVPLASPDLDAEQLRLTGLAAFADGELADLLTPVFSTEVDRVLIRLGGEGWEAEVALDRGALVVGDRREEISEVELELVSGTPAHLFRLATHIQAETAARPLCLSKSERGYSLAAGKTAPVVKAKAPILTPAMTVEESFRAIARACLEHLMLNERCLLATEAGEAIHQMRVAMRRMRSAIKVFKAVTEGPDLERIKDDLRWLLAHLGPARDADVFLSEIVDPVLAAHPGNAGLIALRAHWRKDRETKLAAAISAVKSKRYATMTLNLGRWVETGDWLTPSHGGARRRLAEPIATFAAGRVGKVVTRLLKEGGETLSRLSPEQRHAVRIRGKQVRYAGEFFASLVPRKSTKVYLSELAELQDVLGKLNDIAVAGPKLSGRGAGAGSSRAAGLIAGWHQSRRATLLNDADKCWKRWRALPLPWDEK | not soluble
4 | MGSDKIHHHHHHMDIRHLRYFVSIVDNDFNLSRASLNLYVSQPALSMMISDFENKEGVQLFKRAQGKIVGLTYVGENYYRDAKEVIKKYNEMHSNLHKSIEQIKGHISIGIPPLILSVVFSEVMPKLILNNPEINFTIKELGAYLLKSDLLLENIDFAVLLNPERISKNIIESYEIHRSELSLFLSPKHHLSAKENITWRDLHGEKIVIFDQTFMIHHQLVESFERHNVYPNIVLKSSSWDFLLYSVKINESLLTILPLPMYEQYKSTEFICRRMEEAIPWSVTLCRLKKNCYTNVEEYIFDSLLKAFKP | not soluble
5 | MGSDKIHHHHHHMDKPMTENPVHPAEAGPSGPADAAGKAPGLAAVESRQRMRDGTELLLRTWEPDPCMFPETVGCVLLVHGLAEHCGRYQHVAEVLCGLGLRVRAYDQRGHGASGGARMVAEHPDAYLNDLVEIHDAAVRVWKELPILLGHSMGGLVAARFATARLRPVRALVLSSPALALRLSPTMLTIHRVLLTLAPRLRVPNPIDARMLSHDAHVVARYRADPLVQTTITAGVLESFIRGMAQAQTDAPRLEAPMLMLVGGADKIVDPGGSRTFFDHAPADLREEVWFGEGYHEIFNEAEPLRSKVFAALTDWLRRHLAQPV | not soluble
6 | MGSDKIHHHHHHMDKVIEMKGITKVFPGTIANDNVNFELTRGETHVLLGENGAGKTTLMNILYGLYHPEKGQIIVNGKSVQFSGPNDAIKSGIGMVHQHFMLVNNFTVAENIVLGMEPKNGIRVDMGKAINNVKELSDKYGFAIEPKAIIEDISVGQQQKVEILKALYRGADVLILDEPTAVLTPQEIDELGDIIENLKKEGKSVILITHKLKEVMKMSDRVTIIRRGKVTGTVNTKDTSIDELAELMVGRKVNLTIAKKESKAGKEVLRVEELKVKDHRDVLVVKGINLVVNSGEILGIAGVDGNGQSEFIEALTGLKKVESGNVILNGKNISGKSAKYITNSGVGHIPEDRHKRGLVLKYSLYENSILGMHHRKPFSRMFNINYKAVRKHCKKLIEEFDIRTPNDEVNAAALSGGNQQKLVVAREISRNPDLLIASQPTRGLDVGAIEYIHKRIVEERDKGKAVLLVSLELDEILALSDRIAVMYDGKIVDVLERKDADEKKLGILMAGGNLDKKESVNTVEER | not soluble
7 | MGSDKIHHHHHHMDMLLKKILGTFGVSGREKEISEVIKEELNKYPCEVREDKLGNIIVKLGSGREKIMLSTNMDKKGVITYHIEEDGKVRIDAIGDIKADDIIGKTVVFRSGIEGKIESEKKENNEFRDIYVNVNMGKREAVLKYISEGEAAEFGGNTFADKENVVGPYLSNRAGCYAFLKVIKEIKSIDKEVYFVFSTQGNLNGRGARAAAFEIEPDMCISVNTEKEGEVKLSEGPILVLMEKGLITNYHVKEQIISSAEKAQIKLQRCVSSESSDGSVVHKEVGGIKTGTIALPCKNKNETNETISLNDVDDLVKLLQYIVKK | not soluble
8 | MGSDKIHHHHHHMDNKTQEKADFTLANAYGGVEMVRADYKGQAFSKHVHEGYTIGVIEKGAQRFYRSGEIHTADTNSIILVNADDVHTGESASSGGWQYRAMYPLPEHFENISNDLYDKGKFAPYFGSSVINDPLLTDQLRLLFNQVDNNASQLLTETIMYSLMLRLTLRHSSLRHVPKDISGSKAKLLRVKEYLDSYPAEDISLKQLAIIAGLSQYHFIRQFKKMFDLAPHSYQIQARLKKAKTLLKAGVKPVMVASDCGFHDQSHFNRHFKKALGTSPSKFQKQAVLYKN | not soluble
9 | MGSDKIHHHHHHMDPIEFIQKSASSIASTMHKLKLKYNPFSEKPIRGNTKFFVGRVSELREIGEILGSALHGSVANAAIVGTKGIGKSSMLNIIYYATKKQGHWVVEMTASQVTPRQFLIQLLYNILTENIITMSGTIKSDYMEHSSRILDMYRKLNNYGDKVPIHYPRERIERDLEYLINEVKSPDKLCIILIDEADQFAKKSCLSLLQFFHSFLYEEGILTFMAGSPTLMDDLTKISPPIKDRIPKIINMPPLSKDESYDLIRRRLEDAHIDGAEEFEPFTEEAIHKIVEECDGIPRKIIMTCSESISIAIRKGLTKIDEKVVKEAMHSLGISVGHQILNHLTPAQSEIVRAMAELGGSATVTQLAEYLKKSPSTIGTHLSDIYEMGYIYKEREGNNVYYKLSKELRDVLIGEDDELEM | not soluble
10 | MGSDKIHHHHHHMDQAQIEIQVLSSLSQIAASDWDACACPEAEAGGRPLDPFTTHRFLSALEDSGSVGQGTGWQPQYLTCYLDGQLVACAPLYAKGHSQGEYIFDHNWAHAYERAGGRYYPKLQVAVPFTPATGRRFLVRPGYEEIGISALLQGAVQLASDNQLSSLHVTFCTSDEAEAGREIGLMSRSSQQFHWLNDGYAGFEAFLAALSSRKRKNIRKERKQAQGFGGSIETYTGADLRSEHWDAFWRFYQDTGSRKWGTPYLTRAFFEIIHDTMAEDMALVLAERDGVPVAGALNFIGAKTLYGRYWGCMEHHPCLHFELCYYQAIDLAIEMGLDRVEAGAQGEHKLARGYLPTETHSLHWVADPGFRAAIEQYLEAERAAVGEEIEILTSYGPFKKTHVEEQE | not soluble
11 | MGSDKIHHHHHHMDRILTFDCYGTLIDTKPVFDAISNIAKNNILNSKDAVNIYVNYEDRLMYGETYIPYDKLIKQVLEYCDMELVTNVFSKSYDEIISVHKRLKPFKEVVESLEKIHKKGYELALMSNSVHDIIDYNLDALGNVFNNVFLSEDIHAYKPQLKFFKYVEERLELKQKKHCHIAKGYWWDIVPCSKLGWRKIWVNRENKKGNKCHEPYEEVHTLDEVINLI | not soluble
